These results are taken from paper PMC7774594, “Functional Characterization of Primordial Protein Repair Enzyme M38 Metallo-Peptidase From Fervidobacterium islandicum AW-1” (Frontiers in Molecular Biosciences, 2020).

In general, stoichiometry N refers to a count of units in the complex or per binding partner. As usually defined, the Km is the substrate concentration at which the rate is half of its maximum.

The target in data set [1] is T1, FiBAP (M38 β-aspartyl peptidase from Fervidobacterium islandicum AW-1) (Fervidobacterium islandicum, UniProt A0AAI8CML9).
T1 construct: gene iadA; full length (M1-E386), 6xHis tag (N-terminal per methods with pET-28a, C-terminal per results), E. coli BL21(DE3); 42 kDa monomer, 318 kDa octamer (tetramer of dimers); binuclear Zn
T1 sequence (A0AAI8CML9 1-387): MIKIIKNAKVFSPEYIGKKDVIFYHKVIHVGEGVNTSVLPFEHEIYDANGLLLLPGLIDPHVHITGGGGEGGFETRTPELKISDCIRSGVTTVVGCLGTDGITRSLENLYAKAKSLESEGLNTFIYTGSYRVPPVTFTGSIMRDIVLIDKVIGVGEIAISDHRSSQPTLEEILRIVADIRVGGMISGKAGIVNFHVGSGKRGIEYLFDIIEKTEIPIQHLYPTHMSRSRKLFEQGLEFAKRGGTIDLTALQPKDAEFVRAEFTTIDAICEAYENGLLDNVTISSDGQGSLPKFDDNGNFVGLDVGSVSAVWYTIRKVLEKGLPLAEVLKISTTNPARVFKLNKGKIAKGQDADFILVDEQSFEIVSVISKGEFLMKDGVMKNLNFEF
Put plainly: enzyme activity inhibition (data not shown). The class given is biochemical. As to conditions: substrate analog inhibitor, conditions not given.

The target of data set [2] is T1, FiBAP (M38 β-aspartyl peptidase from Fervidobacterium islandicum AW-1). Description: X-ray crystal structure, […] Å. Type of data set: binding. As to conditions: co-crystallised with Cbz-β-DL, but only the β-DL moiety has density; wild type; binuclear Zn active site; pH about 5.
Data set [3] deals with M38 β-aspartyl peptidase from Fervidobacterium islandicum AW-1 (FiBAP) (Fervidobacterium islandicum AW-1). Description: SEC; Superdex 200 10/300 GL, 25 mM Tris-HCl pH 7.5, 150 mM NaCl; calibrated with blue dextran, thyroglobulin, ferritin, aldolase, conalbumin, ovalbumin; apparent Mr 318,000 against 42,000 by SDS-PAGE; octamer. On the technique in general: In gel filtration, larger molecules generally elute earlier.

For data set [4] the target is unchanged. Description: crystal structure; hanging drop vapor diffusion at 20°C; ligand-free (I422, one subunit in the asymmetric unit, 2.6 Å) and with Cbz-β-Asp-Leu (P22(1)2, four subunits, 2.7 Å); octamer (tetramer of dimers) from symmetry-related molecule analysis.
Substrate in data set [5]: CC(C)C[C@H](NC(=O)C[C@H](N)C(=O)O)C(=O)O
Put plainly: ninhydrin assay of free amino acids, Michaelis-Menten fit. Particulars: 50 mM HEPES pH 8.0, 1 mM CoCl2, 80°C, 10 min, 1–32 mM substrate. The class given is biochemical, Fervidobacterium islandicum. An excerpt: ninhydrin assay of free amino acids, Michaelis-Menten fit on FiBAP ([…] β-aspartyl peptidase from Fervidobacterium islandicum AW-1) | steady-state kinetics analysis of FiBAP with β-DL as substrate, yielding Km and Vmax values

On to `CC(C)C[C@H](NC(=O)C[C@H](NC(=O)OCc1ccccc1)C(=O)O)C(=O)O` [N-carbobenzoxy-β-Asp-Leu], for which the “enzyme activity inhibition (data not shown)” value in data set [1] is “our substrate analog (Cbz-β-DL) containing Cbz inhibited enzyme activity in our enzyme assays”.

As for `CC(C)C[C@H](NC(=O)C[C@H](N)C(=O)O)C(=O)O` [β-Asp-Leu], the “X-ray crystal structure, 2.7 Å” value in data set [2] was “included distinct electron density only for the β-DL moiety lacking carbamazepine (Cbz)”. For “M38 β-aspartyl peptidase from Fervidobacterium islandicum AW-1 (FiBAP) (enzyme)”, the stoichiometry N in data set [3] and in data set [4] was 8 each time.

B1: FiBAP (M38 β-aspartyl peptidase from Fervidobacterium islandicum AW-1) (Fervidobacterium islandicum) (protein)
chain: MIKIIKNAKVFSPEYIGKKDVIFYHKVIHVGEGVNTSVLPFEHEIYDANGLLLLPGLIDPHVHITGGGGEGGFETRTPELKISDCIRSGVTTVVGCLGTDGITRSLENLYAKAKSLESEGLNTFIYTGSYRVPPVTFTGSIMRDIVLIDKVIGVGEIAISDHRSSQPTLEEILRIVADIRVGGMISGKAGIVNFHVGSGKRGIEYLFDIIEKTEIPIQHLYPTHMSRSRKLFEQGLEFAKRGGTIDLTALQPKDAEFVRAEFTTIDAICEAYENGLLDNVTISSDGQGSLPKFDDNGNFVGLDVGSVSAVWYTIRKVLEKGLPLAEVLKISTTNPARVFKLNKGKIAKGQDADFILVDEQSFEIVSVISKGEFLMKDGVMKNLNFEF
notes: full length (M1-E386), 6xHis tag (N-terminal per methods with pET-28a, C-terminal per results), E. coli BL21(DE3); 42 kDa monomer, 318 kDa octamer (tetramer of dimers); binuclear Zn
With B1, the Km in data set [5] stood at 5.23 ± 1.59 mg/mL.
